The results in this text go back to article PMC5951399.

The assay addresses frataxin, mature form (FXN^81–210) (human) (UniProt Q16595). The experiment in a line: ITC.

Sequence of frataxin, mature form (FXN^81–210) (human) (Q16595 81-210): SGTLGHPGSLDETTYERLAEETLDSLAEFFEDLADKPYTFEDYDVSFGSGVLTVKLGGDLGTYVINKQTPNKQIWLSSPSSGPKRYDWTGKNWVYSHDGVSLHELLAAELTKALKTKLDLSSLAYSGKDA
Sequence of [NFS1]2:[ISD11]2:[Acp]2:[ISCU]2 complex (Q9H1K1 whole entry, looked up): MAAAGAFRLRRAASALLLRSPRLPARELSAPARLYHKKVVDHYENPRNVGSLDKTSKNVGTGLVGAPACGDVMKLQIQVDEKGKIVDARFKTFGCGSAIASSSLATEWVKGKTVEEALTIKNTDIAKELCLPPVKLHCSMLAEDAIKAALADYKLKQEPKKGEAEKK
Sequence of [NFS1]2:[ISD11]2:[Acp]2:[ISCU]2 complex (P0A6A8 whole entry, looked up): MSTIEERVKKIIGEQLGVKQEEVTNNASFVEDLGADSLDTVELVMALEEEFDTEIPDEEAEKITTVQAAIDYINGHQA
Sequence of [NFS1]2:[ISD11]2:[Acp]2:[ISCU]2 complex (Q9HD34 whole entry, looked up): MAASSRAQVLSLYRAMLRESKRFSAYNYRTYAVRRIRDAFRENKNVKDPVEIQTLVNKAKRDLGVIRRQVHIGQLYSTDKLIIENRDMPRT
Sequence of cysteine desulfurase complex [NFS1]2:[ISD11]2:[Acp]2 (P0A6A8 whole entry, looked up): as the sequence (P0A6A8 whole entry, looked up) above
Sequence of cysteine desulfurase complex [NFS1]2:[ISD11]2:[Acp]2 (Q9HD34 whole entry, looked up): as the sequence (Q9HD34 whole entry, looked up) above

On to “[NFS1]2:[ISD11]2:[Acp]2:[ISCU]2 complex (from UniProt Q9HD34 1-91; P0A6A8 1-78; Q9H1K1-1 35-167)”, for which the dissociation constant Kd stood at 3 µM.
In the case of “cysteine desulfurase complex [NFS1]2:[ISD11]2:[Acp]2 (from UniProt Q9HD34 1-91; P0A6A8 1-78)” it was 26.2 µM.
